Reference: the nanobody polyreactivity screen of Harvey et al. (2022)

Assay: yeast display, Sf9 membrane polyspecificity reagent, FACS + sequencing; frameworks hold sequencing errors
Method in brief: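 Using colony PCR, genes from sorted yeast display clones were amplified, then sequenced on MiSeq at 2 × 250 and filtered by CDR length. The clones had been stained with 10% biotinylated, detergent-solubilized Sf9 membrane reagent for 1 hour at 4 °C and sorted by FACS into low and high (top ~1%) gates on anti-HA and streptavidin fluorescence. Polyreactivity labels come from the gate of origin.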

QVQLVESGGGLVQAGGSLRLSCAASGSIFPAYAMGWYRQAPGTERELVAAITFSGGRTYYADSVKGRFTISRDNAKNTVYLQMNSLKPEDTAVYDCAAYGAPSGTGAKYGYWGQGTQVTVSS
polyreactivity (PSR sort gate): low polyreactivity

QVQLVESGGGLVQAGGSLRLSCAASGSILIGNAMGWYRQAPGKERELVAGISSDVSTNYADSVKGRFTISRDNAKNTVYLQMNSLNPEDTAVYYCNKDAGPFQEHLYSWGYDSWGQGTQVTVSS
polyreactivity (PSR sort gate): low polyreactivity

QVQLVESGGGLVQAGGSLRLSCAASGRIFGRNPMGWYRQAPGKERELVAAITSRGTRTYYADSVKGRFTISRDNAKNTVYLQMISLKPEDTAVYYCNAAYYHSSSYPDYDYWGQGTQVTVSS
polyreactivity (PSR sort gate): high polyreactivity

QVQLVESGGGLVQAGGSLRLSCAASGFIFIYNAMGWYRQAPGKERELVAAITGSDGGTFYADSVKGRFTISRDNAKNTVYLQMNSLKPEDTAVYYCNADNGSRQSRDGYESWGQGTQVTVSS
polyreactivity (PSR sort gate): low polyreactivity

QVQLEESGGGLVQAGGSLRLSCAASGSIFLANAMGWYRQAPGKERELVATISSGGSTYYADSVKGRFTISRDNAKNTVYLQMNSLKPEDTAVYYCAKRRAYTKKLYYWGQGTQVTVSS
polyreactivity (PSR sort gate): high polyreactivity

QGQLVESGGGLVQAGGSLRLSCAASGYIIRAYAMGWYRQAHGKERELVAAISSRGGSTYYADSVKGRFTISRDNAKNTVYLQMNSLKPEDTAVYYCAAAYRQPYIGYGYWGQGTQVTVSS
polyreactivity (PSR sort gate): high polyreactivity

QVQLVESGGGLVQAGGSLRLSCAPSGFTFGDYAMGWYRQAPGKERELVAAISWSGSNTYYADSVKGRFTLSRDNAKNTVYLQMNSLKPEDTAVYYCNADYDPEDMDYWGQGTQVTVSS
polyreactivity (PSR sort gate): low polyreactivity

QVQLVESGGGLVQAGGSLRLSCAASGSTFDYNAMGWYRQAPGKERELVAAITTVGITYYADSVKGRFTISRDNAKNTVYLQMNSLKPEDTAVYYCAARSVRYGGRYDYWGQGTQVTVSS
polyreactivity (PSR sort gate): high polyreactivity

QVQLVESGGGLVQAGGSLRLSCAASGSIFEYNGMGWYRQAPGKERELVAAITTTGTTDYADSVKGRFTISRDNAKNTVYLQMNSLKPEDTAVYYCAADYTYYYKGEYDYWGQGTQVTVSS
polyreactivity (PSR sort gate): low polyreactivity

QVQLVESGGGLVQAGGSLRVSCAASGGTFCNYAMGWNRQAPGKERELVAAITSGGGSTYYADSVKGRFTISRDIAKNTVYLQMNSLKPEDTAVYYCAARRSSYGYWGQGTQVTVSS
polyreactivity (PSR sort gate): high polyreactivity

QVQLVESGGGLVQAGGSLRLSCAASGSILGGNAMGWYRQAPGKERELVAAITFSGGGTYYADSVKGRFTISRDNAKNTVYLQMNRLKPEDTAVYYCNAFGPDYYHVYPAEDYWGQGTQVTVSS
polyreactivity (PSR sort gate): low polyreactivity

QVQLVESGGGLVQAGGSLRLSCAASGSIFRSYAMGWYRQAPGKERELVAAITYSGGGTYYADSVKGRFTISRDNAKTTVYLQMNSLKPEDTAVYYCNAVGGIYDFDYWGQGTQVTVSS
polyreactivity (PSR sort gate): high polyreactivity

QVQLVESGGGLVQAGGSLSLSCAASGSTFGRYVMGWDRQAPGTERELVAAISYSGGRSYYADSVKGRFTMSRDNAKNTVYLQMNSLKPEDTAVYYCNAYGIDTGDYWGQGTQVTVSS
polyreactivity (PSR sort gate): high polyreactivity

QVQLVESGGGLVQAGGSLRLSCAASGSILDYYVMGWYSQAPGKERELVAAIRGGGSTYYADSVKARFTISRDNAKNTVYLQMNSLKPEDTAVYYCAKDSQTARDFDYWGQGTQVTVSS
polyreactivity (PSR sort gate): low polyreactivity

QVQLVETGGGLVQAGGSLRLSCAASGITFKNYAMGWYRQANGKERELVATINRGSRTNYADSVKGRFTISRDNAKNTVYLQMNSLKPEDTAVYYCNVDQANYRWVPWEMDYWGQGSQVTVSS
polyreactivity (PSR sort gate): low polyreactivity

QVQLEESGGGLVQAGGSLRVSCAPSGRTFGWYTMGWYRQAPGKERELVAVISSTGGRTYYADSVKGRFTISRDNAKNTVYLQMNSLKPEDTAVYYCAAEYVSAKWESGYWGQGTQVTVSS
polyreactivity (PSR sort gate): low polyreactivity

QVQLVESGGGLVQAGGSLRFSCAASGRIFTFYAMGWYRQAPGKERELVAAITSGGSTYYADSVKGRFTISRDNAKNTVYLQMNSLKPEDTAVYYCNALHHTQHDYWGQGTQVTVSS
polyreactivity (PSR sort gate): low polyreactivity

QVQLVDSGGGLVQAGGSLRLSCAASGYSFYFYAMGWYRQAPGKERELVAAITGGGTTSYADSVKGRFTISRDNAKNTVYLQMNSLKPEDTAVYYCNVLFADKSDYWGQGTLVTVSS
polyreactivity (PSR sort gate): low polyreactivity

QVQLVESGGGLVQAGGSLRLSCAASGSIFGDNAMGWSRQAPGKERDLVAAISSGGPTYADSVKGRFTISRDYAKNTVYLLMNSLKPEDTAVYYCNATDGMTPYDLTDIEFDYWGQGTHVTVSS
polyreactivity (PSR sort gate): low polyreactivity

QVQLVESGGGLVQAGGSLRLSCAASGSILSPNAMGWYRQAPGKERELVADISSVGSTYYADSVKGRFTISRDNAKNTVYLQMNSLKPEDTAVYYCAAEFRATDGIGYDYWGQGTHVTVSS
polyreactivity (PSR sort gate): low polyreactivity

QVQLQESGGVQAGGSLRLSCAASGYISRSDVMGWYRQAPVKERELVATINNGTLTYYADSVKGRFTISRDNAKNTVYLQMNSLKPEDTPVHYCAVLQSDTDSLYYWGQGSQVTVSS
polyreactivity (PSR sort gate): low polyreactivity

QVQLVESGGGLVQAGGSLRLSCAASGRIFARNTMGWYRQAPGKERELVAAISWGGGRTYYADSVKGRFTISRDNAKNTVYLQMNSLKPEDTAVFYCAAETLQIPRGEYWGQGTQVTVSS
polyreactivity (PSR sort gate): low polyreactivity

QVQLVESGGGLVQAGGSLRLSCAASGRIFSHNAMGWYRQAPGKERELVAAITGSGGTTYYADSVKGRFKISRDNAKNTVYLQMNSLKPEDTAVYYCAADWQQLSYVWRSQRRYNYWGQGTQVTVSS
polyreactivity (PSR sort gate): low polyreactivity

QVQLVESGGGLVQAGGSLRLSCAASGFTFDIYAMGWYRQAPGKERELVADITSGGSTDYADSVKGRFTISRDNAKNTVYVQMNSLKPEDTAVYYSNAAVFYDPEWQYDYWGQGTQVTVSS
polyreactivity (PSR sort gate): low polyreactivity

QVQHEESGGGLVQAGGSLRLSCAASGSIIRYYPMGWYRQATGKQRELVAAISRDDSRTYYADSVRGRFTISLDNAKNTVYLQMNSLKPEDTAVYYCAADSSRYTRYLYYYWGQGTQVTVSS
polyreactivity (PSR sort gate): high polyreactivity

QVHHVESGAGLVQAGGSLRLSSAASGRTFGSNTKGCYSQAPGKERELVAAITISGGSTYYADSVKGRFTISRDNAKNTVYLKMNSLKPEDTAVYYCATRLWGHGGGRTTSYMYNWRQGTQVTVSS
polyreactivity (PSR sort gate): high polyreactivity

QVQLVESGGGLVQAGGSLRLSCAASGSTFGSYAMGWYRQAPGGERELVAAISWNGGRTYYADSVKGRFTISRDNAKNTVYLQMNSLKPEDTAVYYCAKVVKYQSGGGLEYWGQGTQVTVSS
polyreactivity (PSR sort gate): high polyreactivity

QVQLVESGGGLVQAGGSLRLSCAASGSIFASNAMGWYRQEPGKEREFVAAITWRTDRTYYADSVKGRFTISRDNEKNTVYLQMNSLKPEDTAGYYCAADTWFYRFYYWGQGTQVTVSS
polyreactivity (PSR sort gate): high polyreactivity

QVQLVESGGGLVQAGGSLRLSCAASGIIFRWYTMGWYRQAPGKERELVAAISTSTGSTYYADSVKGRFTISRDNAKNTVYLQMNSLKPEDTAVYYCAADYAYWNYESYYWGQGTQVTVSS
polyreactivity (PSR sort gate): high polyreactivity

QVKLVESGGGLVQAGGSLRLSCAASGRTFPSYAMGWYRQAPGKERELVAAISRSGGSTYYADSVKGRFTISRDNAKNPVYLQMNSLKPEDTAVYYCAAVSRVHFSYIYDYWGQGTQVTVSS
polyreactivity (PSR sort gate): high polyreactivity

QVQLVESGGGLFQAGGSLRLSCAASGLTFGGNAMGWYRHAPGKERELVAAISSGGSTNYADSVKGRFTISRDNAKNTVYLQMNSLKPEDTAVYYCAVEAWSVPPYDYWGQGTQVTVSS
polyreactivity (PSR sort gate): low polyreactivity

QVQLVESGGGVVQAGGSLGLSCAASGRIFDVNAMGWYRQAPGKERELVAAITYSDGSTYYADSVKGRFTISRDIAKNTVYLQMNSLKPEDTAVYYCAATQEPVTPQPYGYWGQGTQVTVSS
polyreactivity (PSR sort gate): low polyreactivity

QVQLVESGGGLVQAGGSLLLSCAASGGTFRNNAMGWYRQAPVKERELVAAISSSGTSTYYADSVKGRFTISRDNVKNTVYLQMNSLKPEDTAVYYCNADALGSPWWDHMDYWGQGTQVTVSS
polyreactivity (PSR sort gate): low polyreactivity

QVQLVESGGGLVQAGGSLRLSCAASGSTFSYNDMGWYRQAPGKESELVADINVSVGRTYYADSVKGRFTISRDNAKNTVYLQMNSLTPEDTAVYYCNATLYTITSYVYAYDYWGQGTQVTVSS
polyreactivity (PSR sort gate): low polyreactivity

QVQLVESGGGLVQAGGRLRLSCAASGTIFYYNAMGWYRQAPGKERELVAVISQSGTSTYYADSVKGRFTNSRDNAKNTVYLQMNSLKPEDTAVYYCAADSRHGSIMDYWGLGTQVTVSS
polyreactivity (PSR sort gate): low polyreactivity

QVQLVESGGGLVQAGGSLRLSCAASGRIFPYYVMGWYRQAPGKERELVAAISRSGSSTYYADSVKGRFTISRDNAKNTVSLQMNSLKPEDTAVYSCAADYNWSPYYTRGDYWGQGTQVTVSS
polyreactivity (PSR sort gate): high polyreactivity

QVQLVESGGGLVQAGGSLRLSCAASGFIFADYAMGWYRQAPGKARELVAAINRGASTYYADSVKGRFSISRDNAKNTVYFQMNSLKPEDTAVYYCAAAGYSRGGRGGYWGHGTQVTVSS
polyreactivity (PSR sort gate): high polyreactivity

QVQLVESGGGLVQAGGSLRLSCADSGSTFYPYAMGWYRQAPGKEREFVAAISRGGTTTYYADSVKGRFTISRDNAKNTVYLQMNSLKPEDTAVYYCAARYVSVYRWTYDYWGQGTQVTVSS
polyreactivity (PSR sort gate): high polyreactivity

QVQLVESGGGLVQAGGSLRLSCAATGRIFTRNAMGWYRQAPGKERELVAAISYSGGTTYYADSVKGRFTISRDNAKITVYLQMNSLKPDDTAVYDCAALRPTQRYFTYDYWGHGTQVTVSS
polyreactivity (PSR sort gate): high polyreactivity

QVQLQESGGGLEQEGGSLRLSCAASGNISPPADMGWYRQAAGKERELVASIGTGGTTNYADSVKGRFNISRDNAKNTVYLQMNSLKPDDTSVYYCAAVRYEYNPYDYLGQGTQVTVSS
polyreactivity (PSR sort gate): low polyreactivity

QVQLVESGGGLVQAGGSLRLSCAASGSTFGSYAMGWHRQAPGKERELVASITYSGDSSNYSDSVKGRFTLSRDNAKNTVYLQMNSLKPEDTAVYYCKARAVMTQYIQKRYDYWGQGTQVTVSS
polyreactivity (PSR sort gate): low polyreactivity

QVQLVESGGGLVQAGGSLRLSCAASGRTFPTYAMGWYRQAPGKERELVATISYNGGRTYYADSVKGRFTISRDNAKNTVYLQMNSLKPEDTAVYDCNAVVYVVGDFDYWGQGTQVTVSS
polyreactivity (PSR sort gate): high polyreactivity

QVQLVESGGGLVQAGGSLRLSCAASGSTFDKNAMGWYRQAPGKERELVAAITWRGGRTYYADSVKGRFPISRDNAKNTVYLQMNSLKPEDTAVYYCNKVSWEQMDYWGQGTQVTVSS
polyreactivity (PSR sort gate): low polyreactivity
